Measured values reported in PMC10184639.

Target: biotinylated CH848 DS SOSIP Trimer (HIV-1)
Assay: SPR

B1: DH270.I5.6 Fab (Fab, V domains shown)
VH: QVQLVQSGAEVKKPGASVKVSCKASGYTFTDYYIHWVRQAPGQGLEWMGWINPNTGRTNSAQKFQGRVTMTRDTSISTAYMELSRLRSDDTAVYYCARGGWIGLYYDSSGYPNFDYWGQGTLVTVSS
VL: QSALTQPASVSGSPGQSITISCTGTSYDVGSYNLVSWYQQHPGKAPKLMIYEVSKRPSGVSNRFSGSKSGNTASLTISGLQAEDEADYYCCSYAGSSTVVFGGGTKLTVL
Q: How did the fold improvement of the binding affinity relative to the UCA turn out when B1 was run?
A: 8 fold
